Patent US20260159594A1 (UNIVERSITY OF TOKYO, published 2026)

Biological target: T1, human IL13RA2 (human, UniProt Q14627 27-380)
T1 construct: also called interleukin 13 receptor subunit alpha 2; 13R2
T1 sequence: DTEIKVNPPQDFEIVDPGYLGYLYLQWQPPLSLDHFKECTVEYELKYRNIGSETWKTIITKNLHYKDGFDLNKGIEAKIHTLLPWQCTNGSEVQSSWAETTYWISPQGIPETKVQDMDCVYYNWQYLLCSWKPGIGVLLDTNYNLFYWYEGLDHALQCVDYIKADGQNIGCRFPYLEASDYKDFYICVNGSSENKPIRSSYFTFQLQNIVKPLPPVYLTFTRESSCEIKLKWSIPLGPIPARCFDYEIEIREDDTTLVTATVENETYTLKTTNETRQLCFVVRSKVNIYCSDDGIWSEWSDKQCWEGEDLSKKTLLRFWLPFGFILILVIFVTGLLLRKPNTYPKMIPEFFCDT
Test: flow cytometry on U87(+), H1299(+) and RPMI7951 cells; Alexa Fluor 488-labeled anti-mouse IgG secondary antibody
Protocol: Flow cytometry analysis was carried out using LSRFortessa (BD Biosciences).

B1: 4E6 antibody (antibody, V domains shown)
VH: EVKLEESGPGLVAPSQSLSIACTVSGFSLTRHGIHWVRQPPGKNLEWLGVIWAGGSTNYNSALMSRLSIIKDNSKSQVFLKMNSLQTVDTAMYYCARDHFDSFDYWGQGTTLTVSS
VL: DIVLTQTPAIMSASLGERVTMTCTASSSVSSSYLHWYQQKPGSSPKLWIYSTSNLASGVPLRFSGSGSGTSYSLTISSMEAEDAATYYCHQYHRSPLTFGAGTKLELKR
notes: also called anti-IL13RA2 antibody; antibody produced by hybridoma NITE BP-03673
Does B1 bind?
Result: binds
